According to US20210162061A1 (DINGFU BIOTARGET, published 2021):

Experiments:
[1] = target: T1, human CD47 (human, UniProt Q08722 19-323); assay: flow cytometry histogram, 20 µg/ml, fresh human RBCs diluted 2500 times
T1 construct: whole, on cells; also called CD47 on A375 cells; CD47 on human erythrocytes (RBC)

[2] = target: T2, CD47-EGFP (human); assay: flow cytometry (MFI, anti-hIgG Fc PE) on cells expressing CD47-EGFP, unit taken from the axis Log10(ug/ml)
T2 construct: also called cell surface human CD47; cells expressing CD47-EGFP
Method: The cells were then analyzed by flow cytometry (Life Technology).

[3] = target: T3, CD47-muFc (human); assay: BLI (Octet K2), CD47-muFc immobilised on AHC biosensors, 25 C
T3 construct: also called CD47-muFc fusion protein; Group 8
Method: All experiments were performed at 25° C. under a PBS buffer containing 0.5% BSA and 0.5% Tween 20, pH 7.2. […] After the above steps, the subtracted binding interference data were applied to the calculations of binding constants using the FortéBio analysis software provided with the instrument.

[4] = target: T1, human CD47; assay: flow cytometry histogram, 20 µg/ml, anti-hIgG Fc PE; tumor cells mixed with 15-fold excess of human RBCs; RBC gate

T3 sequence (chain, as listed by the source limits assumed): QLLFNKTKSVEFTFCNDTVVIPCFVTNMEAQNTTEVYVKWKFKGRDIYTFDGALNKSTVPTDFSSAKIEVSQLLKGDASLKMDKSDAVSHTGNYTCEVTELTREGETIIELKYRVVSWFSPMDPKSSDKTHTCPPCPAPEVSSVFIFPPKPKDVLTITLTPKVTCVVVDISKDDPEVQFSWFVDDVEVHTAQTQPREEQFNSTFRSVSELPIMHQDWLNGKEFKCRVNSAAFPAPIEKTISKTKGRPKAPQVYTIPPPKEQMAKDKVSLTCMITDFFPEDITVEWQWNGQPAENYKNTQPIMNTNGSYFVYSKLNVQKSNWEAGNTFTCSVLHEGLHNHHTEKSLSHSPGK

B1: hu56di-CV1 (Fc fusion)
chain 1: QVQLVESGGGLVQPGGSLRLSCAASGKMSSRRCMAWFRQAPGKERERVAKLLTTSGSTYLADSVKGRFTISRDNSKNTVYLQMNSLRAEDTAVYYCAADSFEDPTCTLVTSSGAFQYWGQGTLVTVSSGAPQVQLVESGGGLVQPGGSLRLSCAASGKMSSRRCMAWFRQAPGKERERVAKLLTTSGSTYLADSVKGRFTISRDNSKNTVYLQMNSLRAEDTAVYYCAADSFEDPTCTLVTSSGAFQYWGQGTLVTVSSEPKSSDKTHTCPPCPAPELLGGPSVFLFPPKPKDTLMISRTPEVTCVVVDVSHEDPEVKFNWYVDGVEVHNAKTKPREEQYNSTYRVVSVLTVLHQDWLNGKEYKCKVSNKALPAPIEKTISKAKGQPREPQVYTLPPCRDELTKNQVSLWCLVKGFYPSDIAVEWESNGQPENNYKTTPPVLDSDGSFFLYSALTVDKSRWQQGNVFSCSVMHEALHNHYTQKSLSLSPGK
chain 2: EEELQIIQPDKSVLVAAGETATLRCTITSLFPVGPIQWFRGAGPGRVLIYNQRQGPFPRVTTVSDTTKRNNMDFSIRIGNITPADAGTYYCIKFRKGSPDDVEFKSGAGTELSVRAKPSGGGGSDKTHTCPPCPAPELLGGPSVFLFPPKPKDTLMISRTPEVTCVVVDVSHEDPEVKFNWYVDGVEVHNAKTKPREEQYNSTYRVVSVLTVLHQDWLNGKEYKCKVSNKALPAPIEKTISKAKGQPREPQVYTLPPSRDELTKNQVSLSCGVKGFYPSDIAVEWESNGQPENNYKTTPPVLDSDGSFKLASKLTVDKSRWQQGNVFSCSVMHEALHNHYTQKSLSLSPGK
notes: also called Group 14
[1]
  binding result: binds

B2: AB6.12 IgG1 (antibody, V domains shown)
VH: QMQLVQSGAEVKKTGSSVKVSCKASGFNIKDYYLHWVRQAPGQALEWMGWIDPDQGDTEYAQKFQDRVTITRDRSMSTAYMELSSLRSEDTAMYYCNAAYGSSSYPMDYWGQGTTVTVSS
VL: NIQMTQSPSAMSASVGDRVTITCKASQDIHRYLSWFQQKPGKVPKHLIYRANRLVSGVPSRFSGSGSGTEFTLTISSLQPEDFATYYCLQYDEFPYTFGGGTKVEIKR
notes: also called anti-CD47 monoclonal antibody AB6.12 IgG1; Group 20
[2]
  EC50: 0.981 µg/mL
[3]
  Kd: 0.198 nM
  koff: 0.000129 s⁻¹
  kon: 651000 M⁻¹ s⁻¹
[4]
  binding result: binds
